Key:
[1] = target: T1, recombinant human TSLP (R&D Systems) (human, UniProt Q969D9 29-159); experiment: ELISA, plate coated with 1 µg/mL recombinant human TSLP, antibody titrated, HRP-conjugated secondary antibody, OD 450 nm
T1 construct: also called thymic stromal lymphopoietin

[2] = target: T2, Cynomolgus monkey TSLP (Cynomolgus monkey, UniProt A0A7N9CAT7 29-159); experiment: ELISA, plate coated with cynomolgus monkey TSLP, antibody titrated, OD 450 nm
T2 construct: also called cynomolgus TSLP

[3] = target: T3, mouse TSLP (R&D Systems) (mouse, UniProt Q9JIE6 20-140); experiment: ELISA, plate coated with mouse TSLP, antibody titrated, HRP-conjugated anti-mouse secondary antibody, OD 450 nm
T3 sequence (looked up): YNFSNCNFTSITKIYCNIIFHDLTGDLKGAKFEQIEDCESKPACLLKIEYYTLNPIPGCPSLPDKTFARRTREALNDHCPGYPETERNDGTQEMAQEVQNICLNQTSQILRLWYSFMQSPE

[4] = target: T1, recombinant human TSLP (R&D Systems); experiment: ELISA, 1 µg/mL recombinant human TSLP coated, HRP anti-mouse detection
[5] = target: T1, recombinant human TSLP (R&D Systems); experiment: cell-based or functional assay
[6] = target: T4, recombinant mouse FcRn (R&D Systems) (mouse, UniProt Q61559 22-297; P01887 21-119, limits assumed); experiment: ELISA at pH 6.0, 1 µg/mL recombinant mouse FcRn coated, HRP anti-human detection
T4 sequence (looked up) 1: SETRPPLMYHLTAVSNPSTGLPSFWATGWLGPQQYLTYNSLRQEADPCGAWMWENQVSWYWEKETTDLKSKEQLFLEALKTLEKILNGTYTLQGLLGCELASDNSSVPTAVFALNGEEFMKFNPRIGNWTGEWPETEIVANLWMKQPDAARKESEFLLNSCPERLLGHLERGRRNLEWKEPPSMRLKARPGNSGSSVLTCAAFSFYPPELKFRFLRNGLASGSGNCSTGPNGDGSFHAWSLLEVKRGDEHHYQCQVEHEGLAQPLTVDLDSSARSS
T4 sequence (looked up) 2: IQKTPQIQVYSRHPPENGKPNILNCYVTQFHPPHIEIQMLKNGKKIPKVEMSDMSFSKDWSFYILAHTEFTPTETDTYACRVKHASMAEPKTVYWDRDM
Experimental: 1 μg/mL recombinant mouse FcRn (R&D Systems) were coated on ELISA plate.

B1: TAVO6264 (antibody, human IgG2, kappa)
heavy: QVQLVQSGAEVKKPGSSVKVSCKASGYTFSSYWVNWVRQAPGQGLEWIGQIYPGDGDTDYAQKFQGRATLTADKSTSTAYMELSSLRSEDTAVYFCARGTYYNNYYGTDYWGQGTTVTVSSASTKGPSVFPLAPCSRSTSESTAALGCLVKDYFPEPVTVSWNSGALTSGVHTFPAVLQSSGLYSLSSVVTVPSSNFGTQTYTCNVDHKPSNTKVDKTVERKCCVECPPCPAPPVAGPSVFLFPPKPKDTLMISRTPEVTCVVVDVSHEDPEVQFNWYVDGVEVHNAKTKPREEQFNSTFRVVSVLTVVHQDWLNGKEYKCKVSNKGLPAPIEKTISKTKGQPREPQVYTLPPSREEMTKNQVSLTCLVKGFYPSDIAVEWESNGQPENNYKTTPPMLDSDGSFFLYSKLTVDKSRWQQGNVFSCSVMHEALHNHYTQKSLSLSPGK
light: DIQLTQSPSFLSASVGDRVTITCSVSSSISSSNLHWYQQKPGKAPKPWIYGTSNLASGVPSRFSGSGSGTEYTLTISSLQPEDAATYYCQQWSSYPLTFGQGTKLEIKRTVAAPSVFIFPPSDEQLKSGTASVVCLLNNFYPREAKVQWKVDNALQSGNSQESVTEQDSKDSTYSLSSTLTLSKADYEKHKVYACEVTHQGLSSPVTKSFNRGEC
notes: Human IgG2 Fc; also called humanized TAVO202 antibody 202H2/202L3 with human IgG2 Fc
- EC50 (read off the curve) [1]: ~2 ng/mL

B2: TAVO6265 (antibody, human IgG2, kappa)
heavy: QVQLVQSGAEVKKPGSSVKVSCKASGYTFSSYWVNWVRQAPGQGLEWIGQIYPGDGDTDYAQKFQGRATLTADKSTSTAYMELSSLRSEDTAVYFCARGTYYNNYYGTDYWGQGTTVTVSSASTKGPSVFPLAPCSRSTSESTAALGCLVKDYFPEPVTVSWNSGALTSGVHTFPAVLQSSGLYSLSSVVTVPSSNFGTQTYTCNVDHKPSNTKVDKTVERKCCVECPPCPAPPVAGPSVFLFPPKPKDTLMISRTPEVTCVVVDVSHEDPEVQFNWYVDGVEVHNAKTKPREEQFNSTFRVVSVLTVVHQDWLNGKEYKCKVSNKGLPAPIEKTISKTKGQPREPQVYTLPPSREEMTKNQVSLTCLVKGFYPSDIAVEWESNGQPENNYKTTPPMLDSDGSFFLYSKLTVDKSRWQQGNVFSCSVMHEALHNHYTQKSLSLSPGK
light: EIVLTQSPDFQSVTPKEKVTITCSVSSSISSSNLHWYQQKPDQSPKPWIYGTSNLASGVPSRFSGSGSGTDYTLTINSLEAEDAATYYCQQWSSYPLTFGQGTKLEIKRTVAAPSVFIFPPSDEQLKSGTASVVCLLNNFYPREAKVQWKVDNALQSGNSQESVTEQDSKDSTYSLSSTLTLSKADYEKHKVYACEVTHQGLSSPVTKSFNRGEC
notes: Human IgG2 Fc; also called humanized TAVO202 antibody 202H2/202L4 with human IgG2 Fc
- EC50 (read off the curve) [1]: ~2 ng/mL

B3: TAVO7264 (antibody, human IgG1, kappa)
heavy: QVQLVQSGAEVKKPGSSVKVSCKASGYTFSSYWVNWVRQAPGQGLEWIGQIYPGDGDTDYAQKFQGRATLTADKSTSTAYMELSSLRSEDTAVYFCARGTYYNNYYGTDYWGQGTTVTVSSASTKGPSVFPLAPSSKSTSGGTAALGCLVKDYFPEPVTVSWNSGALTSGVHTFPAVLQSSGLYSLSSVVTVPSSSLGTQTYICNVNHKPSNTKVDKKVEPKSCDKTHTCPPCPAPEFEGGPSVFLFPPKPKDTLMISRTPEVTCVVVAVSHEDPEVKFNWYVDGVEVHNAKTKPREEQYNSTYRVVSVLTVLHQDWLNGKEYKCKVSNKALPAPIEKTISKAKGQPREPQVYTLPPSREEMTKNQVSLTCLVKGFYPSDIAVEWESNGQPENNYKTTPPVLDSDGSFLLYSKLTVDKSRWQQGNVFSCSVMHEALHNHYTQKSLSLSPGK
light: DIQLTQSPSFLSASVGDRVTITCSVSSSISSSNLHWYQQKPGKAPKPWIYGTSNLASGVPSRFSGSGSGTEYTLTISSLQPEDAATYYCQQWSSYPLTFGQGTKLEIKRTVAAPSVFIFPPSDEQLKSGTASVVCLLNNFYPREAKVQWKVDNALQSGNSQESVTEQDSKDSTYSLSSTLTLSKADYEKHKVYACEVTHQGLSSPVTKSFNRGEC
notes: also called humanized TAVO202 antibody 202H2/202L3 with human IgG1 Fc (L234F, L235E, D265A, F405L)
- binding result [2]: no binding (tested: 1 µg/mL)

B4: mouse monoclonal anti-human TSLP antibody TAVO202 (antibody, V domains shown)
VH: QVQLQQSGAELVRPGSSVKISCKASGYTFSSYWVNWVKQRPGQGLEWIGQIYPGDGDTDYNGKFKGKATLTADKSSSTAYMQLSSLTSEDSAVYFCARGTYYNNYYGTDYWGQGTSVTVSS
VL: EIVLTQSPALMAASPGEKVTITCSVSSSISSSNLHWYQQKSETSPKPWIYGTSNLASGVPVRFSGSGSGTSYSLTISSMEAEDAATYYCQQWSSYPLTFGGGTKLEIK
notes: Mouse monoclonal antibody from hybridoma screening; also called mouse anti-TSLP antibody TAVO202
- binding result [3]: no binding (tested: about 5 µg/mL)
- EC50 [4]: 2.4 ng/mL
- IC50, neutralization of TSLP-driven STAT5 luciferase reporter gene expression (10 ng/mL human TSLP) [5]: 20 ng/mL
- IC50, neutralization of TSLP-driven proliferation of transfected BAF3 cells (0.5 ng/mL human TSLP) [5]: 6.6 ng/mL

B5: TAVO9765 (antibody, human IgG1, kappa, L234A L235A)
heavy: QVQLVQSGAEVKKPGSSVKVSCKASGYTFSSYWVNWVRQAPGQGLEWIGQIYPGDGDTDYAQKFQGRATLTADKSTSTAYMELSSLRSEDTAVYFCARGTYYNNYYGTDYWGQGTTVTVSSASTKGPSVFPLAPSSKSTSGGTAALGCLVKDYFPEPVTVSWNSGALTSGVHTFPAVLQSSGLYSLSSVVTVPSSSLGTQTYICNVNHKPSNTKVDKKVEPKSCDKTHTCPPCPAPEAAGGPSVFLFPPKPKDTLMISRTPEVTCVVVDVSHEDPEVKFNWYVDGVEVHNAKTKPREEQYNSTYRVVSVLTVLHQDWLNGKEYKCKVSNKALPAPIEKTISKAKGQPREPQVYTLPPSREEMTKNQVSLTCLVKGFYPSDIAVEWESNGQPENNYKTTPPVLDSDGSFFLYSKLTVDKSRWQQGNVFSCSVLHEALHSHYTQKSLSLSPGK
light: EIVLTQSPDFQSVTPKEKVTITCSVSSSISSSNLHWYQQKPDQSPKPWIYGTSNLASGVPSRFSGSGSGTDYTLTINSLEAEDAATYYCQQWSSYPLTFGQGTKLEIKRTVAAPSVFIFPPSDEQLKSGTASVVCLLNNFYPREAKVQWKVDNALQSGNSQESVTEQDSKDSTYSLSSTLTLSKADYEKHKVYACEVTHQGLSSPVTKSFNRGEC
notes: also called humanized TAVO202 antibody 202H2/202L4 with human IgG1 Fc (L234A, L235A, M428L, N434S)
- fold better potency than TAVO7265 [6]: ~10 fold

B6: TAVO7265 (antibody, human IgG1, kappa)
heavy: QVQLVQSGAEVKKPGSSVKVSCKASGYTFSSYWVNWVRQAPGQGLEWIGQIYPGDGDTDYAQKFQGRATLTADKSTSTAYMELSSLRSEDTAVYFCARGTYYNNYYGTDYWGQGTTVTVSSASTKGPSVFPLAPSSKSTSGGTAALGCLVKDYFPEPVTVSWNSGALTSGVHTFPAVLQSSGLYSLSSVVTVPSSSLGTQTYICNVNHKPSNTKVDKKVEPKSCDKTHTCPPCPAPEFEGGPSVFLFPPKPKDTLMISRTPEVTCVVVAVSHEDPEVKFNWYVDGVEVHNAKTKPREEQYNSTYRVVSVLTVLHQDWLNGKEYKCKVSNKALPAPIEKTISKAKGQPREPQVYTLPPSREEMTKNQVSLTCLVKGFYPSDIAVEWESNGQPENNYKTTPPVLDSDGSFLLYSKLTVDKSRWQQGNVFSCSVMHEALHNHYTQKSLSLSPGK
light: EIVLTQSPDFQSVTPKEKVTITCSVSSSISSSNLHWYQQKPDQSPKPWIYGTSNLASGVPSRFSGSGSGTDYTLTINSLEAEDAATYYCQQWSSYPLTFGQGTKLEIKRTVAAPSVFIFPPSDEQLKSGTASVVCLLNNFYPREAKVQWKVDNALQSGNSQESVTEQDSKDSTYSLSSTLTLSKADYEKHKVYACEVTHQGLSSPVTKSFNRGEC
notes: also called humanized TAVO202 antibody 202H2/202L4 with human IgG1 Fc (L234F, L235E, D265A, F405L)
- binding result [2]: no binding (tested: 1 µg/mL)

Source: patent US20220251186A1 (TAVOTEK BIOTHERAPEUTICS HONG KONG, published 2022)
